Data published in publication PMC10397247.

What was measured:
Experiment in all cases: two-hybrid library CCNG1;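 further: natural log of median RNA to DNA barcode read ratio; higher means stronger binding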
4H730-bH = biological target: T1, 4H730-bH
T1 chain: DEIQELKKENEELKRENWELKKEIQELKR

4H754-bA = biological target: T2, 4H754-bA
T2 chain: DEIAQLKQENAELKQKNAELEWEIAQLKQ

4H932-bH = biological target: T3, 4H932-bH
T3 chain: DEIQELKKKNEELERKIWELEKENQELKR

4H949-bH = biological target: T4, 4H949-bH
T4 chain: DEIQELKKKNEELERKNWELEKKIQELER

4H2518-bH = biological target: T5, 4H2518-bH
T5 chain: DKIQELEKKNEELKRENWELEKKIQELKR

4H349-bH = biological target: T6, 4H349-bH
T6 chain: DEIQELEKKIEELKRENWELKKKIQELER

4H741-bH = biological target: T7, 4H741-bH
T7 chain: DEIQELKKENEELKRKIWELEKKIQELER

4H2233-bH = biological target: T8, 4H2233-bH
T8 chain: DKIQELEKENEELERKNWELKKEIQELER

4H3057-bH = biological target: T9, 4H3057-bH
T9 chain: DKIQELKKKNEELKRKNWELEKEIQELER

4H2931-bH = biological target: T10, 4H2931-bH
T10 chain: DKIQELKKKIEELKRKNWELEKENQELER

4H2717-bH = biological target: T11, 4H2717-bH
T11 chain: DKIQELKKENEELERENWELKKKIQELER

4H2585-bH = biological target: T12, 4H2585-bH
T12 chain: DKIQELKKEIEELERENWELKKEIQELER

4H3381-bH = biological target: T13, 4H3381-bH
T13 chain: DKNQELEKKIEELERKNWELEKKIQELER

4H56-bH = biological target: T14, 4H56-bH
T14 chain: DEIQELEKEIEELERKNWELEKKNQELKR

4H348-bH = biological target: T15, 4H348-bH
T15 chain: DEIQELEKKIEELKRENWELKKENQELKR

4H2438-bH = biological target: T16, 4H2438-bH
T16 chain: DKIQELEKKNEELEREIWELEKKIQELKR

4H2839-bH = biological target: T17, 4H2839-bH
T17 chain: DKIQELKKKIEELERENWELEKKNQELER

4H2253-bH = biological target: T18, 4H2253-bH
T18 chain: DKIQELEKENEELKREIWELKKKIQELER

4H2473-bH = biological target: T19, 4H2473-bH
T19 chain: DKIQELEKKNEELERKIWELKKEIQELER

4H235-bH = biological target: T20, 4H235-bH
T20 chain: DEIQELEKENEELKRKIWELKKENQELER

4H477-bH = biological target: T21, 4H477-bH
T21 chain: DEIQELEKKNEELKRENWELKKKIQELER

4H2692-bH = biological target: T22, 4H2692-bH
T22 chain: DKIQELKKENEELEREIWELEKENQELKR

4H3041-bH = biological target: T23, 4H3041-bH
T23 chain: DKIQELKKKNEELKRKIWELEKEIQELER

4H796-bH = biological target: T24, 4H796-bH
T24 chain: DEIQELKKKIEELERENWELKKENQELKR

4H492-bH = biological target: T25, 4H492-bH
T25 chain: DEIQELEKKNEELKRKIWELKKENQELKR

4H3297-bH = biological target: T26, 4H3297-bH
T26 chain: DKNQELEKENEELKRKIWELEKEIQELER

4H2162-bH = biological target: T27, 4H2162-bH
T27 chain: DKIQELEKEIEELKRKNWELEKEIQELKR

4H40-bH = biological target: T28, 4H40-bH
T28 chain: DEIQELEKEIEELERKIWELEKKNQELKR

4H3277-bH = biological target: T29, 4H3277-bH
T29 chain: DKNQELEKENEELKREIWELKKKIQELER

4H319-bH = biological target: T30, 4H319-bH
T30 chain: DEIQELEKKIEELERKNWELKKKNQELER

4H2444-bH = biological target: T31, 4H2444-bH
T31 chain: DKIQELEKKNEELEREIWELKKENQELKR

4H4001-bN = biological target: T32, 4H4001-bN
T32 chain: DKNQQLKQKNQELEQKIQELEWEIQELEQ

4H3364-bH = biological target: T33, 4H3364-bH
T33 chain: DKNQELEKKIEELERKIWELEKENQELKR

4H2588-bH = biological target: T34, 4H2588-bH
T34 chain: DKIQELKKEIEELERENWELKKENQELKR

4H2143-bH = biological target: T35, 4H2143-bH
T35 chain: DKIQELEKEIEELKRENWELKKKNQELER

4H2223-bH = biological target: T36, 4H2223-bH
T36 chain: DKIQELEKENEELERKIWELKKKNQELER

4H2915-bH = biological target: T37, 4H2915-bH
T37 chain: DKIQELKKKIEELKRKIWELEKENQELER

4H2760-bH = biological target: T38, 4H2760-bH
T38 chain: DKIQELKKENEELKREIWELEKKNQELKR

4H264-bH = biological target: T39, 4H264-bH
T39 chain: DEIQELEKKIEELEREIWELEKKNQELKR

4H2503-bH = biological target: T40, 4H2503-bH
T40 chain: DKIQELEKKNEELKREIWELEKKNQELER

4H2859-bH = biological target: T41, 4H2859-bH
T41 chain: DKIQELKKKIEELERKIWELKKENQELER

4H850-bA = biological target: T42, 4H850-bA
T42 chain: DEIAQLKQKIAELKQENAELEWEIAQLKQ

4H1804-bA = biological target: T43, 4H1804-bA
T43 chain: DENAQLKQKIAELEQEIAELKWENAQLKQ

4H906-bA = biological target: T44, 4H906-bA
T44 chain: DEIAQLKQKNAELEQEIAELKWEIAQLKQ

4H3974-bA = biological target: T45, 4H3974-bA
T45 chain: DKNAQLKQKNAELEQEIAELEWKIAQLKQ

4H3631-bA = biological target: T46, 4H3631-bA
T46 chain: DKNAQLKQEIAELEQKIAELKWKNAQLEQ

4H1629-bA = biological target: T47, 4H1629-bA
T47 chain: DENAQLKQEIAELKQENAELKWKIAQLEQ

4H570-bA = biological target: T48, 4H570-bA
T48 chain: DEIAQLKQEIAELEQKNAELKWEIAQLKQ

4H1985-bA = biological target: T49, 4H1985-bA
T49 chain: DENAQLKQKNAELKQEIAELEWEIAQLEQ

4H3414-bA = biological target: T50, 4H3414-bA
T50 chain: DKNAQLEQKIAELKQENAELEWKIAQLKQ

4H1710-bA = biological target: T51, 4H1710-bA
T51 chain: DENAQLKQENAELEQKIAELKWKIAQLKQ

4H3638-bA = biological target: T52, 4H3638-bA
T52 chain: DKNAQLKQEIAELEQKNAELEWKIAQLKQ

4H3172-bA = biological target: T53, 4H3172-bA
T53 chain: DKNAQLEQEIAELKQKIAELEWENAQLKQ

4H3129-bA = biological target: T54, 4H3129-bA
T54 chain: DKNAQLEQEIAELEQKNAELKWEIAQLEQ

4H1449-bA = biological target: T55, 4H1449-bA
T55 chain: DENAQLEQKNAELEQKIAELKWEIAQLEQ

4H1393-bA = biological target: T56, 4H1393-bA
T56 chain: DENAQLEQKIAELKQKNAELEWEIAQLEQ

4H3817-bA = biological target: T57, 4H3817-bA
T57 chain: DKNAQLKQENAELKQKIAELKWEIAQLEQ

4H619-bA = biological target: T58, 4H619-bA
T58 chain: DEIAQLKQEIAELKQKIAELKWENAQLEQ

4H584-bA = biological target: T59, 4H584-bA
T59 chain: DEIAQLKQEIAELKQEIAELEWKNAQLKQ

DKIQELEKEIEELKRENWELKKKNQELER [4H2143-bH]
interaction score (4H730-bH): -0.835
interaction score (4H754-bA): -0.871
interaction score (4H932-bH): -0.164
interaction score (4H949-bH): -0.954
interaction score (4H2518-bH): 0.15
interaction score (4H349-bH): -0.148
interaction score (4H741-bH): 0.515
interaction score (4H2233-bH): 0.334
interaction score (4H3057-bH): 0.0434
interaction score (4H2931-bH): 0.0986
interaction score (4H2717-bH): -0.549
interaction score (4H2585-bH): -1.12
interaction score (4H3381-bH): 0.106
interaction score (4H56-bH): 0.127
interaction score (4H348-bH): 0.059
interaction score (4H2438-bH): -0.916
interaction score (4H2839-bH): 1.24
interaction score (4H2253-bH): -1.13
interaction score (4H2473-bH): -0.279
interaction score (4H235-bH): -0.618
interaction score (4H477-bH): -0.0383
interaction score (4H2692-bH): -0.348
interaction score (4H3041-bH): -0.203
interaction score (4H796-bH): -1.45
interaction score (4H492-bH): -0.638
interaction score (4H3297-bH): -0.15
interaction score (4H2162-bH): 0.12
interaction score (4H40-bH): 1
interaction score (4H3277-bH): -0.719
interaction score (4H319-bH): -1.46
interaction score (4H2444-bH): -0.824
interaction score (4H4001-bN): -1.45
interaction score (4H3364-bH): 0.347
interaction score (4H2588-bH): -0.874
interaction score (4H2143-bH): 0.693
interaction score (4H2223-bH): -0.434
interaction score (4H2915-bH): -0.577
interaction score (4H2760-bH): -0.0706
interaction score (4H264-bH): 0.605
interaction score (4H2503-bH): -1.13
interaction score (4H2859-bH): -0.954

DENAQLEQKIAELKQKNAELEWEIAQLEQ [4H1393-bA]
interaction score (4H850-bA): -0.951
interaction score (4H1804-bA): -1.14
interaction score (4H754-bA): -1.58
interaction score (4H906-bA): -1.12
interaction score (4H3974-bA): -0.626
interaction score (4H3631-bA): -0.847
interaction score (4H1629-bA): -1.57
interaction score (4H570-bA): -0.941
interaction score (4H1985-bA): -1.7
interaction score (4H3414-bA): 0.166
interaction score (4H1710-bA): -1.72
interaction score (4H3638-bA): 1.8
interaction score (4H3297-bH): -0.857
interaction score (4H3172-bA): -1.3
interaction score (4H3129-bA): -0.0989
interaction score (4H1449-bA): -1.31
interaction score (4H1393-bA): -1.08
interaction score (4H3817-bA): -1.23
interaction score (4H619-bA): -1.63
interaction score (4H584-bA): -1.22
